Reference: paper PMC7583084, “Biochemical Characterization of a Flavonoid O-methyltransferase from Perilla Leaves and Its Application in 7-Methoxyflavonoid Production” (Molecules, 2020)

Experiments:
Conditions in all cases: co-substrate SAM (100 µM in activity assay), 20 mM Tris-HCl pH 7.5, 37 °C, substrate 0.5-100 µM
purified protein = substrate: O=c1cc(-c2ccc(O)cc2)oc2cc(O)cc(O)c12; assay: purified protein
[1] = substrate: O=C1C[C@@H](c2ccc(O)c(O)c2)Oc2cc(O)cc(O)c21; assay: HPLC assay of 7-O-methylation; format: biochemical, Perilla frutescens
[2] = substrate: O=C1C[C@@H](c2ccc(O)cc2)Oc2cc(O)cc(O)c21; assay: HPLC assay of 7-O-methylation; format: biochemical, Perilla frutescens
[3] = substrate: O=c1c(O)c(-c2ccc(O)cc2)oc2cc(O)cc(O)c12; assay: HPLC assay of 7-O-methylation; format: biochemical, Perilla frutescens
[4] = substrate: O=c1cc(-c2ccc(O)c(O)c2)oc2cc(O)cc(O)c12; assay: HPLC assay of 7-O-methylation; format: biochemical, Perilla frutescens
[5] = substrate: O=c1cc(-c2ccccc2)oc2cc(O)cc(O)c12; assay: HPLC assay of 7-O-methylation; format: biochemical, Perilla frutescens

B1: PfOMT3 (Perilla frutescens) (protein)
chain: MKNSSTDEDLSIFAMQVATSSIVPRALKAVIELDLLEMMKKAGRPLSTSEMAAQIQATNPEAALMIDRILRVLIASNILECTTAASHGGAERLYSLAPVCKFFTKNDDGVSWAPLFLMIQDRVFTEAWDHVKDAIVEGGIPFNIAHGMSGFEYPATDPRYNKIFNQAMSDESTMFMHKILELYDGFDGLKSVVDVGGGIGASLKMIITKYPSIQAINFDLPHVIQNAPSHPGLEHRSGDMFVSVPTGDAILLKWIIHNWSDGHCLKLLKNCYEALPEKGKVIIADRILPETENYKEASASVDLAGDALMLTLFTGGKERAEAEFQALAKASGFKHFRKVCCAFSTWIMELYK
notes: primers encode MKNSSTD at start and IMELYK at end
For B1, the Km (purified protein) was 3.72 ± 0.05 µM, the Vmax (purified protein) was 0.0133 µmol/min/mg and the kcat (purified protein) was 0.0091 s⁻¹. For the same protein, the kcat/Km (purified protein) was 2440 M⁻¹ s⁻¹, the Km [1] was 13.08 ± 1.42 µM and the Vmax [1] was 0.00784 µmol/min/mg. For the same protein, the kcat [1] was 0.00535 s⁻¹, the kcat/Km [1] was 409 M⁻¹ s⁻¹ and the Km [2] was 13.40 ± 1.29 µM. For the same protein, the Vmax [2] was 0.0517 µmol/min/mg, the kcat [2] was 0.0353 s⁻¹ and the kcat/Km [2] was 2630 M⁻¹ s⁻¹. For the same protein, the Km [3] was 17.88 ± 0.49 µM, the Vmax [3] was 0.00581 µmol/min/mg and the kcat [3] was 0.00397 s⁻¹. The kcat/Km [3] was 222 M⁻¹ s⁻¹, the Km [4] was 34.21 ± 4.65 µM and the Vmax [4] was 0.00418 µmol/min/mg. For the same protein, the kcat [4] was 0.00285 s⁻¹, the kcat/Km [4] was 83.4 M⁻¹ s⁻¹ and the Km [5] was 1.31 ± 0.25 µM. The Vmax [5] was 0.00205 µmol/min/mg, the kcat [5] was 0.0014 s⁻¹ and the kcat/Km [5] was 1070 M⁻¹ s⁻¹.
